Results on 13 molecules are retold here after US20150045310A1 (TRUSTEES OF PRINCETON UNIVERSITY, published 2015).

Like-named read-outs stand apart in the source and are kept apart here. Bridges are numbered along the chain shown (N, C = ends). Where no end group is shown, it is not given here. [ ]: non-standard residue; d: D form. eCPX = enhanced circularly permuted OmpX display scaffold; S5 = C=CCCC[C@](C)(N)C(=O)O; linker = not defined here

Test [1] deals with T1, Bcl-xL (biotinylated pro-survival Bcl-2 family protein) (UniProt Q07817 1-209, biotinylated (co-expressed E. coli biotin ligase BirA)). Description: flow cytometry of E. coli displaying the peptide on eCPX, biotinylated target + streptavidin-PE; apparent Kd. The method, then: (§1) All binding assays were performed using MC1061 strain. Briefly, a 5 mL culture of a library sample or individual variant was grown to OD₆₀₀˜0.6, and induced with arabinose (0.2%) at RT for 2.5 hours. Cells were pelleted (1 mL culture, 6000 rpm, 5 min) and resuspended in 1 mL PBS. A portion of the cell suspension (50 μL) was mixed with the desired concentration of pro-survival protein to a total volume of 500 μL. The mixture was allowed to rotate at room temperature for 1 hour for equilibrium binding. The cells were pelleted again (6000 rpm, 20 min), resuspended with 100 μL of 50 nM streptavidin-phycoerythrin (SAPE), and incubated on ice in the dark for 30 min. After a final centrifugation, the cell pellets were stored on ice and resuspended in 2 mL of PBS for flow cytometry measurements. A Partec CyFlow ML Flow Cytometer equipped with a 488 nm laser was used to analyze the cells. A FACSVantage SE cell sorter was used for cell sorting in single cell mode.
(§2) A two parameter model was used to extract apparent binding affinity (Kd) from flow cytometry binding experiments.
(In general: In flow cytometry, cells or beads pass a laser one at a time.)

The target in test [2] is T2, Bcl-w (biotinylated pro-survival Bcl-2 family protein) (UniProt Q92843 1-164, limits assumed, biotinylated (co-expressed E. coli biotin ligase BirA)).
T2 sequence (looked up): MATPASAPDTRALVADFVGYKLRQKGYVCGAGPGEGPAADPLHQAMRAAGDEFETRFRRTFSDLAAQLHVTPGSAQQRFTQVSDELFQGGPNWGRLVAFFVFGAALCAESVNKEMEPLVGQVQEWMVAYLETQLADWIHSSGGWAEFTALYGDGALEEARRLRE
The description is as above. The method, then: as §1, §2

Test [3] deals with T1, Bcl-xL (biotinylated pro-survival Bcl-2 …). The description is as above. The method, then: as §1, §2
This is another data set of the same source.

Test [4] deals with T3, Mcl-1 (biotinylated pro-survival Bcl-2 family protein) (UniProt Q07820 171-327, limits assumed, biotinylated (co-expressed E. coli biotin ligase BirA)).
T3 construct: In the functional rows the target is the endogenous Mcl-1 of the human cancer cell lines
Described as above. The method, then:
as §1, §2

Test [5] has as its target Bcl-2 (biotinylated pro-survival Bcl-2 family protein) (UniProt P10415 1-217, limits assumed, biotinylated (co-expressed E. coli biotin ligase BirA)). The test is described as above. The method, then: as §1, §2
Test [6] deals with T3, Mcl-1 (biotinylated pro-survival Bcl-2 …). The description is as above. The method, then: as §1, §2
The source holds these as a separate data set.

The target is the same in test [7]. Description: apparent Kd, bacterial surface display and flow cytometry. The method, then: as §1, §2
Test [8] deals with T1, Bcl-xL (biotinylated pro-survival Bcl-2 …). The description is as above. The method, then:
as §1, §2

The target of test [9] is T3, Mcl-1 (biotinylated pro-survival Bcl-2 …). Description: cell-based or functional assay.
Test [10] has the same target. Description: cell-based or functional assay. The source holds these as a separate data set.
Test [11] shares this target. Description: cell-based or functional assay. This is another data set of the same source.
Test [12] has the same target. Description: cell-based or functional assay. This is another data set of the same source.
Test [13] shares this target. Description: cell-based or functional assay. This is another data set of the same source.

Chain of Bcl-2 (biotinylated pro-survival Bcl-2 family protein) (P10415 1-217 limits assumed): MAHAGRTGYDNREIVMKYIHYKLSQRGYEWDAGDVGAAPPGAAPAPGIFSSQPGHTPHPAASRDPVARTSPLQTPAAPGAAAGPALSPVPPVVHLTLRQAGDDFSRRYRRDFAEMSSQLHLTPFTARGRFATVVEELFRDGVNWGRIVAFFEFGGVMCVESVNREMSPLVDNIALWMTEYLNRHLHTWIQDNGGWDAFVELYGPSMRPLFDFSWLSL
T3 sequence (Q07820 171-327 limits assumed): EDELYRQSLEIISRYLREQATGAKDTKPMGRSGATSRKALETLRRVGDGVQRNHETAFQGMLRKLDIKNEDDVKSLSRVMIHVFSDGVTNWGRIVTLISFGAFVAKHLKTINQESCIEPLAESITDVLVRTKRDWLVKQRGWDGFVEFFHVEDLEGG
T1 sequence (Q07817 1-209): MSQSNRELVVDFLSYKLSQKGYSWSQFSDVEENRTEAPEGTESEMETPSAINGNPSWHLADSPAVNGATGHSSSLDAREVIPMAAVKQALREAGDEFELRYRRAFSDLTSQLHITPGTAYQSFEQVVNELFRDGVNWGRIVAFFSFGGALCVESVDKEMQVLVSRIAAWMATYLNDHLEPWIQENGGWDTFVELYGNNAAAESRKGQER

B1: Bim BH3 14-mer variant X2-8 displayed on eCPX (peptide)
peptide: WLAQLLRRYGDEFN
modifications: also: displayed as fusion to eCPX scaffold (letters not given here)
notes: Clone selected against Bcl-xL; not shown: eCPX display scaffold and the linker to it
For B1, the Kd in [1] was determined as 17.8 nM; in test [2], 946 nM; in test [3], 17.8 nM; in [4] it was 2580 nM; in test [5], 2350 nM.

B2: Bim BH3 14-mer variant M2-4 displayed on eCPX (peptide)
peptide: WLAQLLRRIGDEIN-{linker-eCPX}
modifications: reading uncertain; also: printed as Trp-Leu-Ala-Gln-Leu-Leu-Arg-Arg-Ile-Gly-Asp-Glu-Ile-Asn
notes: Clone selected against Mcl-1; not shown: eCPX display scaffold and its linker, fused C-terminal to the peptide
B2: the Kd in test [6] stood at 9.85 nM; in test [2], 542 nM; in [3], 333 nM; in [4], 9.85 nM; in [5], 93.7 nM.

B3: wild-type Bim BH3 14-mer peptide (residues 147-160) displayed on eCPX (peptide)
peptide: WIAQELRRIGDEFN-{linker-eCPX}
modifications: reading uncertain
notes: also called WT; Bim WT; not shown: eCPX (enhanced circularly permuted OmpX) display scaffold and its linker, fused C-terminal to the peptide
On to B3, for which the Kd in test [1] is 251 nM; in test [6] it was 37.7 nM; in test [2] it was 594 nM; in test [3] it was 251 nM; in [4], 37.7 nM; in test [5] it was 97.9 nM.

B4: Bim BH3 14-mer E151I displayed on eCPX (peptide)
peptide: WIAQILRRIGDEFN
notes: also called E1511; Bim E151I; not shown: eCPX display scaffold and the linker to it
Consider B4, for which the “fold increase in apparent affinity against wild-type Bim 14-mer” value (from here on “fold increase in apparent affinity”) in test [7] is 2 fold.

B5: Bim BH3 14-mer variant M2-1 displayed on eCPX (peptide)
peptide: WIAQLLRRIGDEVN-{linker-eCPX}
modifications: reading uncertain; also: printed as Trp-Ile-Ala-Gln-Leu-Leu-Arg-Arg-Ile-Gly-Asp-Glu-Val-Asn
notes: as for B2
In the case of B5, the Kd in test [6] was determined as 10.3 nM.

B6: Bim BH3 14-mer E151Q (pseudo-wild-type) displayed on eCPX (peptide)
peptide: WIAQQLRRIGDEFN
modifications: not fully specified
notes: also called pseudo-wild-type Bim; Bim E151Q; not shown: eCPX display scaffold and the linker to it
B6: the “fold increase in apparent affinity” value in [8] was found to be 5 fold. The Kd in test [2] was determined as 642 nM; in test [3], 47.4 nM; in [4], 45.2 nM; in test [5] it was 175 nM.

B7: Bim BH3 14-mer variant M2-2 displayed on eCPX (peptide)
peptide: WVAQLLRRIGDEVN-{linker-eCPX}
modifications: reading uncertain; also: printed as Trp-Val-Ala-Gln-Leu-Leu-Arg-Arg-Ile-Gly-Asp-Glu-Val-Asn
notes: as for B2
For the molecule B7, the figures for the Kd in test [6], in [3] and in test [4] were 5.8 nM, 2800 nM and 5.8 nM, respectively. Also, in [7], the “fold increase in apparent affinity” value was determined as 6 fold.

B8: Bim BH3 14-mer E151L displayed on eCPX (peptide)
peptide: WIAQLLRRIGDEFN
notes: also called Bim E151L; pSZ55; not shown: eCPX display scaffold and the linker to it
As to B8, the “fold increase in apparent affinity” value in test [7] came to 2 fold.

B9: stapled M2-4 peptide (peptide)
peptide: WLAQLLR[S5]IGD[S5]IN-NH2
modifications: staple 8-12; N-terminus assumed
SMILES: CC[C@H](C)[C@@H]1NC(=O)[C@@](C)(NC(=O)[C@H](CCCNC(=N)N)NC(=O)[C@H](CC(C)C)NC(=O)[C@H](CC(C)C)NC(=O)[C@H](CCC(N)=O)NC(=O)[C@H](C)NC(=O)[C@H](CC(C)C)NC(=O)[C@@H](N)Cc2c[nH]c3ccccc23)CCCC=CCCC[C@@](C)(C(=O)N[C@H](C(=O)N[C@@H](CC(N)=O)C(N)=O)[C@@H](C)CC)NC(=O)[C@H](CC(=O)O)NC(=O)CNC1=O
As to B9, the “IC50 (µM), MTT cytotoxicity assay, MCF7 cells” value in [9] worked out at 5.7 µM. The “IC50 (µM), MTT cytotoxicity assay, HeLa cells” value in test [10] is 1 µM. The “IC50 (µM), MTT cytotoxicity assay, MDA231 cells” value in test [11] stood at 4.4 µM. In [12], the “IC50 (µM), MTT cytotoxicity assay, PC3 cells” value was determined as 1.4 µM. Besides, in [13], the “IC50 (µM), cytotoxicity, HeLa cells” value is 1.04 µM; the “IC50 (µM), cytotoxicity, MCF7 cells” value worked out at 5.72 µM; the “IC50 (µM), cytotoxicity, MDA231 cells” value was found to be 4.39 µM; the “IC50 (µM), cytotoxicity, PC3 cells” value is 1.36 µM.

B10: stapled M2-2 peptide (peptide)
peptide: WVAQLLR[S5]IGD[S5]VN-NH2
modifications: staple 8-12; N-terminus assumed
SMILES: CC[C@H](C)[C@@H]1NC(=O)[C@@](C)(NC(=O)[C@H](CCCNC(=N)N)NC(=O)[C@H](CC(C)C)NC(=O)[C@H](CC(C)C)NC(=O)[C@H](CCC(N)=O)NC(=O)[C@H](C)NC(=O)[C@@H](NC(=O)[C@@H](N)Cc2c[nH]c3ccccc23)C(C)C)CCCC=CCCC[C@@](C)(C(=O)N[C@H](C(=O)N[C@@H](CC(N)=O)C(N)=O)C(C)C)NC(=O)[C@H](CC(=O)O)NC(=O)CNC1=O
For B10, in test [9], the “IC50 (µM), MTT cytotoxicity assay, MCF7 cells” value is 5.7 µM. The “IC50 (µM), MTT cytotoxicity assay, HeLa cells” value in test [10] came out at 6.1 µM. Further, the “IC50 (µM), MTT cytotoxicity assay, MDA231 cells” value in test [11] worked out at 3.7 µM. The “IC50 (µM), MTT cytotoxicity assay, PC3 cells” value in [12] was 4.7 µM.

B11: Bim BH3 14-mer variant M2-3 displayed on eCPX (peptide)
peptide: WMAQILRRIGDEVN-{linker-eCPX}
modifications: reading uncertain; also: printed as Trp-Met-Ala-Gln-Ile-Leu-Arg-Arg-Ile-Gly-Asp-Glu-Val-Asn
notes: as for B2
Consider B11, for which the Kd in [6] stood at 11.5 nM.

B12: Bim BH3 14-mer variant X2-3 displayed on eCPX (peptide)
peptide: WVAQWLRRWGDEFN
modifications: also: displayed as fusion to eCPX scaffold (letters not given here)
notes: as for B1
Turning to B12, the Kd in test [1] is 9.28 nM; in test [2] it was 5890 nM; in [3] it was 9.28 nM; in test [4], 1300 nM; in test [5], 929 nM. Further, the “fold increase in apparent affinity” value in [8] was determined as 25 fold.

B13: Bim BH3 14-mer variant X2-10 displayed on eCPX (peptide)
peptide: WVAQTLRRWGDEFN-{linker-eCPX}
modifications: reading uncertain; also: printed as Trp-Val-Ala-Gln-Thr-Leu-Arg-Arg-Trp-Gly-Asp-Glu-Phe-Asn
notes: Clone selected against Bcl-xL; not shown: eCPX display scaffold and its linker, fused C-terminal to the peptide
For the molecule B13, the Kd in [1] was 17 nM.
